Legend:
MS2 coat protein [1] = test: apparent KD of MS2 coat protein, switch ON state; designed switch direction (-1 OFF switch, 1 ON switch): -1; higher = weaker reporter binding; conditions: FMN input: 0 or 200 uM; Eterna round: R93 (includes R88 designs)
Summary of the method: (§1)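 Apparent KD per design is the median of normalised cluster binding-curve fits. Designed RNA switches transcribed on-chip from Illumina sequencing clusters were titrated with SNAP-549-labelled MS2 coat protein in twofold steps from 0.7 or 1.5 nM to 3 µM, with 0.8–1.5 h down to 10–20 min per step. Buffer: 100 mM Tris-HCl pH 7.5, 80 mM KCl, 4 mM MgCl2, without or with constant ligand.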

MS2 coat protein [2] = test: apparent KD of MS2 coat protein, switch OFF state (with FMN for OFF switches, without FMN for ON switches); designed switch direction (-1 OFF switch, 1 ON switch): -1; higher = weaker reporter binding; conditions: FMN input: 0 or 200 uM; Eterna round: R93 (includes R88 designs)
Summary of the method: as §1

Row | Sequence | apparent KD of MS2 coat protein (MS2 coat protein [1]) [nM] | apparent KD of MS2 coat protein (MS2 coat protein [2]) [nM]
1 | AAAAAGUGAGGAUAUUCGGAUAGGAAAACGAAAACCUAUCCGAAGAAGGCACAUGAGGAUCACCCAUGUGAAAA [67% Ecls-II - Early G + late G segment 1] | 27.5 | 24.1
2 | AAAUAGCAAGGAUAUACAUGAGGAUCACCCAUGUGACCCAGGUAUGGCAUAGAAUAGAGUAGAAGGUGCAAAUA [Mod 4 of Ex 3 Tesla 8 - Jieux - Exclusion 3] | 132 | 149
3 | AAACGUAGAGGAUAUACAAAAAGAUUACGAAAGUAAUCGGGACAUGAGGAUCACCCAUGUAGAAGGCUACGAAA [Mod2 of Meechl 64% 2] | 36.7 | 94.5
4 | AGCUAGUCAGGAUAUACGAACAAGACAAAAGACGAGAACGGACAUGAGGAUCACCCAUGUAGAAGGGACUAGCA [Diamond 8] | 25.7 | 28.8
5 | AAGAAGUCAGGAUAUGCUGCUCGUCACGAAAGUGAUGAGUAGCAGAAGGGACAUGAGGAUCACCCAUGUAAAGA [Exclusion 4.1 (Exclusion4-cac2 - the real original)] | 55.2 | 66.6
6 | GAAAAACAUGAGGAUCACCCAUGUAAGGAUAUGCUAAAAAACGCAAAAAAAGCGAAUAGCAGAAGGUACAAAAG [Mat - Exclusion 1 - Eli mod - D82] | 22.3 | 78.1
7 | AUAGGCCUAGGAUAUACAUGAGGAUCACCCAUGUUAACACUUCAAUCAAGUUAAUAGUGUAGAAGGAGGAAUAA [JR_Exc003_Sub308] | 29.3 | 31.5
8 | AACAGUACAGGAUAUACAUGAGGAUCACCCAUGUGGGAAAAAAGAUCGAGAGAUCAAUGUAGAAGGGUACUGGA [JL In the Red 03] | 161 | 427
9 | AACAUGUGAGGAUAUAAAAUGAAUAUAAAUUAUUAUCUUGAUUAGAAGGCACAUGAGGAUCACCCAUGUCUGAA [E4-1.2] | 23.8 | 25.2
10 | ACCUGACAUGAGGAUCACCCAUGUCAGGAUAUGUACAUCAGGAAAAAAAAACUGAUGUACAGAAGGGACAAGGG [Design 6: Super Stable - A-U mutation 2] | 17.8 | 13.7
11 | AAAAGGUGAGGAUAUUCGAAAAUAAAAGAAAAUAAAAGAAAGAAGAAGGCACAUGAGGAUCACCCAUGUAAUAA [LROPPY Exclusion 4 - v02_deltaG=2.94 break up the As mixed] | 30.1 | 27
12 | AAAAAGGCAGGAUAUACAAAAAAAUUUUUAAAAAAAAAAAAACAUGAGGAUCACCCAUGUAGAAGGGCCAAAAA [Ex 2.1] | 52 | 43.3
13 | AAGAACGAAGGAUAUACAUGAGGAUCACCCAUGUAAAAGAAAGAAAAGGGAAAGAAAAGUAGAAGGUCGAAGAA [Banenre Merenptah] | 21.5 | 33.1
14 | AAAAAGUGAGGAUAUGUCAAAGGUCACGAAAGUGACAAAGGACAGAAGGCACAUGAGGAUCACCCAUGUGAAAA [Fiskers Exclusion 4D1 65% - Early + late G segment 2] | 26.7 | 32.3
15 | AAGGUUCGAGGAUAUACAUAGAUACAGAUACAUGUAGACGUACAUGAGGAUCACCCAUGUAGAAGGCGAAUAUA [AJ 25] | 69.7 | 142
16 | AGUCGGCGAGGAUAUACAUGAGGAUCACCCAUGUGAGAGAAAAAAGUGAGUCAGAAAAGUAGAAGGCGCUGACA [JL Lego Mod 4] | 63.4 | 41.6
17 | AGUUGGCGAGGAUAUACAUGAGGAUCACCCAUGUAAAAUAAAUAAAAAAUAAAAGGGAGUAGAAGGCGCUGACA [73%, Moding Norbert Elias, 16] | 41.9 | 53.4

Row | Sequence | apparent KD of MS2 coat protein (MS2 coat protein [1]) [nM] | apparent KD of MS2 coat protein (MS2 coat protein [2]) [nM]
18 | AAAAAUGGAGGAUAUACAUGAGGAUCACCCAUGUGUGGGUAUACUGUGUCGGCGUCAGGUAGAAGGCCAAAAAA [Gilly Gone Silly 28 - Jieux - Exclusion 3] | 132 | 121
19 | GAAAAGGAAGGAUAUACAAAGGGACCUUAUAAAAGAAGAAGACAUGAGGAUCACCCAUGUAGAAGGUCCAGAUA [Diusanatra] | 19.5 | 19.6
20 | AAAAAACAUGAGGAUCACCCAUGUAAGGAUAUGCUCGUCAGUGCGAAAGCACAGAUGAGCAGAAGGUACAAAAA [66%, Wbt, 43] | 24.8 | 39
21 | AGGAAACAUGAGGAUCACCCAUGUGAGGAUAUACAAAAGAAAAGAAAAGAAAGAAGAAGUAGAAGGUACAAGAA [Djedkare Isesi] | 21.7 | 24.7
22 | AAAAAGGCAGGAUAUGCAUACACACGAAAAAAAACGCUGGGACAUGAGGAUCACCCAUGUAGAAGGGCCAAAAA [Dora Explored 10 - Jieux - Exclusion 2] | 57.2 | 38.6
23 | AGUUGGCGAGGAUAUACAUGAGGAUCACCCAUGUGAGAGAAAAAAGUGAGAAAGAAAAGUAGAAGGCGCUGACU [salish99-ex3-06] | 46.4 | 307
24 | AACAAACAUGAGGAUCACCCAUGUCAGGAUAUGCAAACAACAAACAACAAACAACAAAGCAGAAGGGAUAGGAA [63%, Olong, 4] | 27.1 | 21.2
25 | CUUAUGUGAGGAUAUGGUGUUGGCCACAGGGAAAAGAUCCUCCAGAAGGCACAUGAGGAUCACCCAUGUAGUGA [Jolly's Folly 29 - Jieux - Exclusion 4] | 69 | 160
26 | UCCACACAUGAGGAUCACCCAUGUGAGGAUAUCUAGAAAACCUCAUGUAAAAAAAUCUAGAGAAGGCAUAUGAA [Design 91: Pseudoknot A] | 24.1 | 18.6
27 | CCCAUGUCAGGAUAUCAGUAGUAAAAAAAAAAAAUUACUACUGAGAAGGGACAUGAGGAUCACCCAUGUCACUU [EX4 320: Super Stable 20] | 74.9 | 53.2
28 | AAGAAGCAAGGAUAUACUAAAGAAAUGAAAAGAAAUAAAGAACAUGAGGAUCACCCAUGUAGAAGGUGCAAGAA [Webenre] | 50.4 | 39.3
29 | AUGUAGGUAGGAUAUGCAUAGAUACAGAUUCAUGUGGAACUACAUGAGGAUCACCCAUGUAGAAGGACCUAAAA [Mat - Same state - Mayanna Mod - D126] | 20.2 | 30
30 | GAAACUGGAGGAUAUACGAACAUGUCAAAAGACGUGAAGGGACAUGAGGAUCACCCAUGUAGAAGGCUAGAAAG [Mat - Exclusion 2 - JL mod - D99] | 74.9 | 22.4
31 | AACAAGUCAGGAUAUUCGACAAGUAAAUAAGUAAAUCAAAAGAAGAAGGGACAUGAGGAUCACCCAUGUAAAUA [JR_Exc004_Sub401] | 32.5 | 21.3
32 | AGCUAGUGAGGAUAUACGAAUCUGUCAAAAGACGGAAGGGAACAUGAGGAUCACCCAUGUAGAAGGCACUAGCA [Web Mod 74% 6] | 31.9 | 23.2
33 | GACAUGCUAGGAUAUACAGGACAAAUUGGGCAUCCGCAUGGACAUGAGGAUCACCCAUGUAGAAGGAGUAGAAA [Inonmatixe] | 368 | 798

From the supplement of paper PMC9170038
